Values quoted from earlier work in publication PMC6989705 (EJNMMI Radiopharmacy and Chemistry, 2020).

Details: endogenous ligand; ref Rai et al. [2015]; cited from earlier work
Protocol: Somatostatin receptors (SSTRs) are validated biomarkers in the management of NETs. The short biological half-life of the endogenous ligand somatostatin (< 5 min) prevents pharmacological use of this peptide (Rai et al. [2015]). Therefore, synthetic somatostatin analogs that are more resistant to peptidases, such as octreotide, were developed. Using radiolabeled somatostatin analogs, the presence of SSTRs on tumor cells may be exploited for molecular imaging and targeted radionuclide therapy (TRNT) for the treatment of unresectable neuroendocrine tumors (Pauwels et al. [2018]; Deroose et al. [2 ...

For somatostatin, the biological half-life is given as < 5 min.
